Measured values taken from patent US11407811B2, “Fusion protein, preparation method therefor and use thereof” (JIANGSU RONGTAI BIOTECH CO., LTD., priority 2017, dated 2022).

Assays:
mouse spleen lymphocytes = assay: Proliferation of mouse spleen lymphocytes (ConA, MTT); assay type: cell-based; details: for A570 nm/A630 nm / PI (%): with ConA 5 μg/mL
Procedure: Tris-NH4Cl was used to break the red blood cells, which were allowed to stand in an ice water bath for 4 min and centrifuged (1000 rpm, 5 min), the supernatant was discarded, and the cells were washed twice with sterile PBS.
The cells were statically cultured in a cell incubator at 37° C. for 48 h. After the completion of the culture, 20 μL of MTT was added to each well, and the culture was continued for 4 h. Finally, all the solutions in each well were discarded, 100 μL of DMSO was added to each well, and the mixture was shaken and detected by a microplate reader for OD value at 570 nm. 5 parallels were preformed for per well.

[1] = tested on: human retinal vascular endothelial cell (HRCEC); assay: MTT assay, proliferation of human retinal vascular endothelial cell (HRCEC); assay type: cell-based; details: 48 hours
Procedure: The activity of the integrin blocker polypeptide to inhibit proliferation of human retinal vascular endothelial cells was examined by MTT assay. HRCEC cells were cultured in a 5% CO2 incubator at 37° C. to a density of 90% or more, and then collected by trypsinization. The cells were resuspended in the culture liquid and counted under a microscope. The cell concentration was adjusted to 3.0×10^4 cells/mL. The cell suspension was inoculated into a 96-well plate at 100 μL per well and cultured in a 5% CO2 incubator at 37° C. overnight. […] After the cells were fully adhered, each dilution was added to a 96-well plate at 100 μL per well, respectively. […] 20 μL of 5 mg/mL MTT was added to each well of a 96-well plate, and incubation was continued for 4 hours. The medium was aspirated and 100 μL of DMSO was added per well for dissolution. The absorbance was measured at 570 nm with a microplate reader with a reference wavelength of 630 nm, and the proliferation inhibition (PI) was calculated. The formula was as follows: […]
where Ntest is the OD value of the test group and Ncontrol is the OD value of the blank control group.
The test was repeated 5 times independently. The results obtained from the test were calculated as mean±SD, and statistical t-test was performed. P<0.05 was considered as significant difference, and P<0.01 was considered as extremely significant difference.

[2] = tested on: angiogenesis of chicken embryo chorioallantoic membrane; assay: Chicken embryo chorioallantoic membrane (CAM) angiogenesis assay; assay type: in vivo; details: for Blood vessel number / PI: CAM, 72 hours
Text: In this study, CAM assay was used to investigate the activity of fusion protein I, protein II, protein III, protein IV, and protein V to inhibit angiogenesis in vivo. The study has shown that the biosynthesis rate of collagen reached the maximum on the 8th to 11th day of chicken embryo development, which was the most vigorous stage of angiogenesis, and the body's immune system had not yet been fully established at that time, and thus the chicken embryos developed to the 8th day was selected to be administered. […] The following steps were used.
(1) The White Leghorn chicken embryos on day 6 were cultured in a 37° C. incubator at 60%-70% humidity for two days.
(2) A 1.0 cm×1.0 cm window was drilled above the chicken embryo air sac, and the inner membrane was torn off with forceps to expose the chorioallantoic membrane. Lens paper having a diameter of 5 mm was used as a loading carrier, and was placed on the chorioallantoic membrane of the chicken embryo air sac. Filter paper with PBS was used as a blank group, and the administration group was added with different doses of fusion protein.
(3) The chicken embryo air sac was sealed with a sterile transparent tape, and after culturing at 37° C. for 72 hours, the chicken embryo air sac was opened, and a fixative (formaldehyde:acetone=1:1) was added for fixation for 15 minutes. The chorioallantoic membrane to which the lens paper was adhered was taken out, the distribution of the new blood vessels was observed, and the new blood vessels were counted and photographed. Five replicates were set for each dose and the results were statistically analyzed.

[3] = tested on: diabetic retinopathy rat model; assay: Neovascularization in diabetic retinopathy rat model (STZ); assay type: in vivo; details: 100 μg dose, intravitreal injection
Procedure: The experimental diabetic rat model was established with streptozotocin STZ. STZ was dissolved in 0.1 mol/L citrate buffer at pH 4.5 to prepare a 2% solution. All experimental Wistar rats were fasted for 12 h before injection, and each rat was intraperitoneally injected with a 2% STZ solution at a dose of 65 mg/kg. After the injection, the rats were fed in single cages, and urine sugar and blood sugar were detected at the 48th hour. When urine sugar was +++ or above, and blood glucose was higher than 16.7 mmol/L, the model establishment requirement is reached. The diabetic retinopathy model was successfully established by detecting blood glucose, urine glucose, and urine volume and retinal VEGF immunohistochemistry.
15 rats were randomly divided into […], which were labeled as a control group, and fusion protein I, protein II, protein III, protein IV and protein V treatment groups. The administration was performed via intravitreal injection once every 5 days for 2 weeks, in which the control group was injected with physiological saline (0.1 mL), and the fusion protein I, protein II, protein III, protein IV, and protein V were all administered with 100 μg (0.1 mL). Observation was performed on week 4, week 8, and week 12.

B1: Protein II: IgG2-Fc linked to antiangiogenesis polypeptide EDSM-Y via a flexible linker; SEQ ID NO: 17 (protein)
chain: ERKCCVECPPCPAPPVAGPSVFLFPPKPKDTLMISRTPEVTCVVVDVSHEDPEVQFNWYVDGVEVHNAKTKPREEQFNSTFRVVSVLTVVHQDWLNGKEYKCKVSNKGLPAPIEKTISKTKGQPREPQVYTLPPSREEMTKNQVSLTCLVKGFYPSDISVEWESNGQPENNYKTTPPMLDSDGSFFLYSKLTVDKSRWQQGNVFSCSVMHEALHNHYTQKSLSLSPGKGGGGSGGGGSGGGGSFQPVLHLVALNSPLSGGMRGIRGADFQCFQQARAVGLAGTFRAGGGGRGD
For B1, the “inhibition of mouse spleen lymphocytes” value (mouse spleen lymphocytes; compared with the ConA group) was “could inhibit mouse spleen lymphocytes to some extent”, the “A570 nm/A630 nm” value (mouse spleen lymphocytes; dose 8 μg/mL) was 0.5514 ± 0.0187 and the “PI (%)” value (mouse spleen lymphocytes; dose 8 μg/mL) was 6.84%. The “A570 nm/A630 nm” value (mouse spleen lymphocytes; dose 32 μg/mL) was 0.4637 ± 0.0155, the “PI (%)” value (mouse spleen lymphocytes; dose 32 μg/mL) was 21.66% and the “A570 nm/A630 nm” value (mouse spleen lymphocytes; dose 128 μg/mL) was 0.3825 ± 0.0103. The “PI (%)” value (mouse spleen lymphocytes; dose 128 μg/mL) was 35.38%, the “A570 nm/A630 nm” value ([1]; 1 μg/mL) was 1.1122 ± 0.0385 and the PI ([1]; 1 μg/mL) was 17.44%. For the same molecule, the “A570 nm/A630 nm” value ([1]; 2 μg/mL) was 1.0002 ± 0.0405, the PI ([1]; 2 μg/mL) was 25.75% and the “A570 nm/A630 nm” value ([1]; 4 μg/mL) was 0.9287 ± 0.0288. For the same molecule, the PI ([1]; 4 μg/mL) was 31.06%, the “A570 nm/A630 nm” value ([1]; 8 μg/mL) was 0.8999 ± 0.0320 and the PI ([1]; 8 μg/mL) was 33.20%. For the same molecule, the “A570 nm/A630 nm” value ([1]; 16 μg/mL) was 0.8225 ± 0.0291, the PI ([1]; 16 μg/mL) was 38.94% and the “A570 nm/A630 nm” value ([1]; 32 μg/mL) was 0.7348 ± 0.0277. For the same molecule, the PI ([1]; 32 μg/mL) was 45.45%, the “A570 nm/A630 nm” value ([1]; 64 μg/mL) was 0.5748 ± 0.0314 and the PI ([1]; 64 μg/mL) was 57.33%. The “A570 nm/A630 nm” value ([1]; 128 μg/mL) was 0.3628 ± 0.0282, the PI ([1]; 128 μg/mL) was 73.07% and the “A570 nm/A630 nm” value ([1]; 256 μg/mL) was 0.1495 ± 0.0314. It also gave a PI ([1]; 256 μg/mL) of 88.90%, a Blood vessel number ([2]; 8 μg) of 102 ± 10 and a PI ([2]; 8 μg) of 17.07%. For the same molecule, the Blood vessel number ([2]; 32 μg) was 83 ± 11, the PI ([2]; 32 μg) was 32.52% and the Blood vessel number ([2]; 128 μg) was 66 ± 7. For the same molecule, the PI ([2]; 128 μg) was 46.34%, the “inhibitory effect on angiogenesis of CAM” value ([2]; high dose) was roughly 50% and the “therapeutic effect on diabetic retinopathy” value [3] was “a certain therapeutic effect on diabetic retinopathy”.
